From patent publication US10822423 (TRUSTEES OF DARTMOUTH COLLEGE, dated 2020) come the findings set out here.

The assay has as its target T1, purified recombinant human CD40L (human, UniProt P29965 113-261, limits assumed).
T1 construct: also called hCD40L; CD154
T1 sequence (looked up): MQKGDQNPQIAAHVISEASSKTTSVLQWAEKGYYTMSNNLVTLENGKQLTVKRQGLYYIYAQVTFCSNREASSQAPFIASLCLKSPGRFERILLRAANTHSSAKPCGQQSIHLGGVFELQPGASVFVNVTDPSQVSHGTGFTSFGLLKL
Kind of assay: ELISA: recombinant human CD40L coated, detected with mouse anti-human IgG then HRP goat anti-mouse IgG. Here is the method:
Both antibodies were purified by conventional methods and the binding activity of both recombinantly expressed antibodies to hCD40L was assayed. To measure anti-hCD40L variants binding to hCD40L, purified recombinant human CD40L was bound to a 96-well ELISA-grade plate. After blocking, anti-hCD40L variants were added followed by mouse anti-human IgG then horseradish peroxidase-labeled goat anti-mouse IgG. TMB color development was then quantitated at 450 nm by an ELISA reader.

B1: Antibody A (anti-human CD40L IgG1 antibody with V215A and E269R mutations in the human IgG1 constant region) (antibody, V domains shown)
VH: EVQLQESGPGLVKPSETLSLTCTVSGDSITNGFWIWIRKPPGNKLEYMGYISYSGSTYYNPSLKSRISISRDTSKNQFSLKLSSVTAADTGVYYCACRSYGRTPYYFDFWGQGTTLTVSS
VL: DIVMTQSPSFLSASVGDRVTITCKASQNVITAVAWYQQKPGKSPKLLIYSASNRYTGVPDRFSGSGSGTDFTLTISSLQPEDFADYFCQQYNSYPYTFGGGTKLEIK
notes: Human IgG1 with V215A and E269R in the constant region, expressed in HEK-293 Freestyle cells; also called anti-hCD40L variant
As for B1, the binding result is listed as “binds”.

B2: Antibody B (anti-human CD40L IgG1 antibody with V215A, E269R and K322A mutations in the human IgG1 constant region) (antibody, V domains shown)
VH: B1 VH
VL: B1 VL
notes: Human IgG1 with V215A, E269R and K322A in the constant region, expressed in HEK-293 Freestyle cells; also called anti-hCD40L variant
On to B2, for which the binding result is reported as “binds”.
